In patent US20100172896A1, “HMGB1 PROTEIN INHIBITORS AND/OR ANTAGONISTS FOR THE TREATMENT OF VASCULAR DISEASES” (BIO3 RESEARCH SRL, priority 2001, published 2010):

Legend:
Assay type in all cases: cell-based
RSMC [1] = experiment: Chemotaxis assay, modified Boyden chambers, RSMC
Procedure: Chemotaxis assays were performed using well-known protocols (Degryse et al., 1999, Blood, 94: 649-662).
Modified Boyden chambers were used with filters having 0.5 Am pore size (Corning, Acton, Mass.) and. treated with collagen I (100 Ug/ml in 0.5 M acetic acid) e fibronectin (10 IIg/ml) (Roche). RSMC cells (kind gift of Dr. Marco Bertulli, Bayer Research Laboratories, Milan) were cultured in DMEM serum-free and a sample of 20.000-40.000 cells was added to the upper well of Boyden. chamber. The molecules to be tested were diluted in the same serum-free medium and added to the lower well.
Different HMGB1 preparations were used: HMGB1 purified from calf thymus (kind gift of J. Bernues, C.S.I.C., Barcelona, Spain), E. coli expressed […], and a lightly modified HMGB1 form (containing EAEAYVEF aminoacids bound to the Nterminus) produced in yeast Pichia pastoris (Mistry et al., 1997, Biotechniques, 22: 718-729).
If necessary, the polyclonal rabbit anti-HMGB1 (Pharmingen B D, Torrey Pines, Calif.), the pertussis toxin (PT) from Bordetella pertussis (kind gift of Dr. M. G. Pizza, I.R.I.S., Siena) or the inhibitors were added in both wells.
Overnight cell migration was allowed at 37 C, then cells remaining on the upper surface of filters were scraped off and filters were fixed in methanol and stained in a solution of 10% crystal violet in 20% methanol. All experiments were performed at least twice in triplicate.
Results, as shown in FIGS. 1-A, 1-B, 1-C, 1-D, are the mean±SD of the number of cells counted in 10 high power fields per filter and expressed as fold over control. To random cell migration (i.e., migration in the absence of chemoattractant) was given the arbitrary value of 100%.
Statistical analysis was performed using Student's t test for pairwise comparisons of treatments, or an ANOVA model for the evaluation of treatments with increasing doses of a reagent.
Knowing that many chemoattractants act via membrane receptors associated to heterotrimeric GTP binding proteins (G proteins), whether G proteins could be implicated in HMGB1 signaling was tested. […] RSMC were pre-treated with PT or with mPT (50 ng/ml) for 6 hours, thus stimulated with HMGB1 (100 ng/ml), Box A or Box B (10 ng/ml) for 30 minutes.
Chemotaxis assays were performed as previously described. The data represent the mean±SD and the value of 100% corresponds to basal migration in the absence of any stimulator.

RSMC [2] = experiment: Immunofluorescence assay of RSMC morphology and actin cytoskeleton organization
Procedure: Samples of 15.000-20.000 RSMC, 20-40% confluence, 2 were seeded on glass coverslips in 2 cm wells and cultured for 24 hours in DMEM plus 10% FCS, washed with PBS, and cultured for another 24 hours in DMEM without FCS. RSMC were stimulated with HMGB1 100 ng/ml for increasing time intervals, from 5 to 120 minutes at 37 C. After stimulation, RSMC were fixed for 20 minutes at room temperature with a solution of 3% paraformaldehyde, 2% sucrose in PBS, pH 7.5, followed by three washes with PBS-BSA 0.2%. Cells were permeabilized with 20 mM Hepes pH 7.4, 300 mM saccharose, 50 mM NaCl, 3 mM MgCl2, 0.5% (v/v) Triton X-100 for 3 minutes at 4 C, and washed again three times with PBS-BSA 0.2%. Then, RSMC were incubated with PBS-BSA 2% for. 15 minutes at 37 C, with primary antibodies for 30 minutes at 37 C, washed three times with PBS-BSA 0.2%, and further incubated with PBS-BSA 2% for 15 minutes. At the end, cells were stained with secondary antibodies and/or phalloidin conjugated with rodamin for visualization of filamentous actin; in some cases, DAPI (4′,6-diamidino-2-phenilindolo, Roche) was used to label the nucleus.
After all the subsequent incubation, coverslips were washed three times with PBS-BSA 0.2%, twice with distilled water, mounted with 20% Mowiol in PBS and analysed on a Axiophot microscope (Carl Zeiss).
Fluorescence photographs were taken either on T-Max 400 or EPH P1600X film (Eastman Kodak) using Zeiss 40 and 100 neofluar lenses.
In certain experiments cells were overnight pretreated with antibodies or PT or inhibitors.
Finally, to determine whether the observed effects of HMGB1 on RSMC actually reflect a dynamic transition from resting to motile states, the proportion of cells in each different state was quantified.

phosphorylated ERK1/2 = experiment: ERK1/2 phosphorylation and nuclear translocation in RSMC (immunostaining); set-up: inhibition of HMGB1-induced ERK phosphorylation and nuclear translocation: dose or concentration left out as unconfirmed
Procedure: Afterwards, whether the HMGB1-induced signaling involves the MAP kinase pathway, was investigated; in fact, it is known that these proteins are activated by RAGE, and they have a direct role in the regulation of the intracellular motility machinery. RSMC were pretreated with PD98059 ([…]) for one hour or were not pre-treated, stimulated for 30 minutes with HMGB1 from calf thymus (100 ng/ml) and stained with specific antibodies against phosphorylated ERK1/2 (New England Biolabs, Beverly, Mass.) and DAPI. A separate sample of cells was stained with TRITC-phalloidin to visualize the reorganization of cytoskeleton. […] Moreover, PD98059, the selective inhibitor of MEK, the upstream regulator of ERK, inhibits HMGB1-induced ERK phosphorylation and. nuclear translocation, as well as RSMC migration and cytoskeleton reorganization.

[3] = test system: Mouse embryonic fibroblasts; experiment: Chemotaxis assay on fibroblasts, modified Boyden chambers
Procedure: Chemotaxis assays were performed using well-know protocols (Degryse et al., 1999, Blood, 94:64. 9-662). Modified Boyden chambers were used with filters having 0.5 ym pore size (Corning, Acton, Mass.) and treated with collagen I (100 pg/ml in 0.5 M acetic acid) and fibronectin (10 IIg/ml) (Roche). Mouse embryonic fibroblasts were cultured following well-known protocols (Calogero et al., 1999, Nat. Genet., 22: 276280) and after 24 hours of serum starvation, a sample of 20.000-40.000 cells was added to the upper well of Boyden. chamber. E. Coli expressed recombinant-HMGB1 was diluted in the same serum-free medium and added to the lower well. Anti-RAGE antibodies (1000 ng/ml) (kind gift of Dr. A. M. Schimdt, Columbia University, NY) were added in both wells.
Overnight cell migration. was allowed at 37 C, then cells remaining on the upper surface of filters were scraped off and filters were fixed in methanol and stained in a solution of 10% crystal violet in 20% methanol. All experiments were performed at least twice in triplicate.
Results, as shown in FIG. 10 are the mean W SD of the number of cells counted in 10 high power fields per filter and expressed as fold over untreated control. To random cell migration (i.e. migration in absence of chemoattractant) was given the arbitrary value of 100%.
Statistical analysis was performed using an ANOVA model for the evaluation of treatments with increasing doses of a reagent. […] Anti RAGE antibodies (1000 ng/ml) totally block the migratory response (right side of the graphic of FIG. 10) showing that this is specifically due to HMGB1.

[4] = HMGB1 100 ng/ml, one hour after stimulation

**Q.** How did the “inhibition of HMGB1-induced RSMC migration” value (RSMC [1]; inhibitor in both wells or pre-treatment, HMGB1 as chemoattractant) turn out when COc1cccc(-c2cc(=O)c3ccccc3o2)c1N [PD98059, reference compound] was run?
**A.** The value was “inhibits”.

**Q.** And the “inhibition of HMGB1-induced cytoskeletal reorganization and morphological change of RSMC” value (RSMC [2]; cells pretreated with antibodies, PT or inhibitors)?
**A.** Its value is “inhibits”.

**Q.** What about the “inhibition of HMGB1-induced ERK phosphorylation and nuclear translocation” value (phosphorylated ERK1/2; pretreated with PD98059 for one hour) of the same molecule?
**A.** Its value is “inhibits”.

B1: E. Coli expressed recombinant-HMGB1: full-length HMGB1 expressed in E. Coli transformed with pT7-7-rHMGlcm plasmid (protein, UniProt P09429 1-215, looked up)
chain: MGKGDPKKPRGKMSSYAFFVQTCREEHKKKHPDASVNFSEFSKKCSERWKTMSAKEKGKFEDMAKADKARYEREMKTYIPPKGETKKKFKDPNAPKRPPSAFFLFCSEYRPKIKGEHPGLSIGDVAKKLGEMWNNTAADDKQPYEKKAAKLKEKYEKDIAAYRAKGKPDAAKKGVVKAEKSKKKKEEEEDEEDEEDEEEEEDEEDEDEEEDDDDE
modifications: full-length expressed in E. coli
notes: full-length HMGB1 expressed in E. Coli transformed with pT7-7-rHMGlcm plasmid
**Q.** Which “dose giving maximal migratory response of fibroblasts” value [3] does the source give for B1 here?
**A.** The value was 100 ng/mL.

**Q.** And the “migratory response of fibroblasts at higher doses” value ([3]; 1000 ng/ml)?
**A.** The value was “lower than the control”.

**Q.** What about the “lowest dose stimulating fibroblasts migration” value ([3]; concentration-dependent) of the same molecule?
**A.** The value was 0.1 ng/mL.

B2: HMGB1 from calf thymus: HMGB1 purified from calf thymus (protein, UniProt P10103 2-215, looked up)
High mobility group protein B1: GKGDPKKPRGKMSSYAFFVQTCREEHKKKHPDASVNFSEFSKKCSERWKTMSAKEKGKFEDMAKADKARYEREMKTYIPPKGETKKKFKDPNAPKRPPSAFFLFCSEYRPKIKGEHPGLSIGDVAKKLGEMWNNTAADDKQPYEKKAAKLKEKYEKDIAAYRAKGKPDAAKKGVVKAEKSKKKKEEEEDEEDEEDEEEEEDEEDEEEEEDDDDE
**Q.** How did the “maximal migratory response of RSMC” value (RSMC [1]; at 100 ng/ml, random cell migration = 100%) turn out when B2 was run?
**A.** Its value is 2.5 fold.

**Q.** And the “lowest dose stimulating migration of RSMC” value (RSMC [1]; concentration-dependent, overnight migration)?
**A.** Its value is 0.1 ng/mL.

B3: HMGB1: HMGB1 protein, 25-kD, 215 amino acids, two HMG boxes and acidic COOH terminus; preparation not specified at the place (protein, UniProt P09429 1-215, looked up)
High mobility group protein B1: MGKGDPKKPRGKMSSYAFFVQTCREEHKKKHPDASVNFSEFSKKCSERWKTMSAKEKGKFEDMAKADKARYEREMKTYIPPKGETKKKFKDPNAPKRPPSAFFLFCSEYRPKIKGEHPGLSIGDVAKKLGEMWNNTAADDKQPYEKKAAKLKEKYEKDIAAYRAKGKPDAAKKGVVKAEKSKKKKEEEEDEEDEEDEEEEEDEEDEDEEEDDDDE
**Q.** For B3, which “chemotactic effect on RSMC (in words)” value (RSMC [1]; overnight migration, serum-free medium) is on record?
**A.** The value was “comparable in amplitude to the effects of the well characterised attractants fMLP and bFGF”.

**Q.** What about the “proportion of cells in state 2” value (RSMC [2]; HMGB1 100 ng/ml, after 15-30 minutes) of the same molecule?
**A.** Its value is 80%.

**Q.** What about the “proportion of cells in state 1” value (RSMC [2]; [4]) of the same molecule?
**A.** Its value is 60%.

**Q.** And the “proportion of cells in state 2” value (RSMC [2]; [4])?
**A.** The value was 40%.

**Q.** And the “change of RSMC morphology and cytoskeleton organization” value (RSMC [2]; HMGB1 100 ng/ml, within 15-30 minutes)?
**A.** The value was “complete change of morphology and cytoskeleton organization”.

**Q.** And the “proportion of cells in state 2” value (RSMC [2]; HMGB1 100 ng/ml, within 5 minutes after stimulation)?
**A.** The value was 60%.

**Q.** And the “activation and nuclear translocation of ERK1/2 in RSMC” value (phosphorylated ERK1/2; HMGB1 from calf thymus 100 ng/ml, within 30 minutes)?
**A.** The value was “induces the activation of ERK1/2 proteins”.
